In the test the target is α-synuclein (human, UniProt P37840 1-140). Description: immunofluorescence microscopy, co-localisation in SK-MEL13 cells. The protocol:
For immunofluorescence imaging, cells were first seeded onto 16 mm diameter circular sterile coverslips in 12-well culture plates and left to adhere overnight. All coverslips were sterilised with 100% (v/v) ethanol prior to use and allowed to dry. Cells were washed twice in PBS before being fixed in 4% (w/v) paraformaldehyde (diluted in PBS) at room temperature for 10 minutes. PFA was removed and the coverslips were washed twice in PBS. Coverslips were then permeabilised with 0.2% (v/v) NP40 in PBS for 3 min. Cells were then blocked by washing twice and a 15-minute incubation in 1% (w/v) BSA/PBS. Coverslips were then incubated for 1.5 hr at room temperature with a 1:100 dilution of anti-α-synuclein antibody (610786, BD Biosciences) in a humidified chamber. They were then washed 3 times (for 10 minutes each) in 0.2% (w/v) BSA/PBS before being incubated with goat anti-mouse-IgG alexa-fluor 594 conjugated secondary antibody (A-11005, Thermo Fisher Scientific) at a dilution of 1:500 for 1 hour at 37° C., protected from light. Coverslips were then washed three times in 0.2% (w/v) BSA/PBS for 10 minutes each with the first wash containing a 1:15,000 dilution of DAPI. […]
The interaction of NbSyn87 and alpha-synuclein was determined in extracts and cells, with alpha-synuclein knockout cells included as controls for a clean alpha-synuclein IP. […]

The record followed here is patent US20250059527A1 (UNIVERSITY OF DUNDEE, published 2025).

B1: GFP-NbSYN87 (VHH)
VHH: QVQLQESGGGSVQTGGSLRLSCVASGYSGYMAWFRQAPGKEREGIAAIYRGDKITYYAHSVQGRFTISQANAKNTVYLLMNSLKPEDTAIYYCAARRVVADSPLLSKTYAYWGQGTQVTVSS
notes: Transiently transfected into SK-MEL13 cells; also called GFP-tagged NbSyn87; not shown: GFP tag
Regarding B1, the binding result is “binds”.
